Measurements from PMC5686351, “Tudor-domain protein PHF20L1 reads lysine methylated retinoblastoma tumour suppressor protein” (Cell Death and Differentiation, 2017).
Where no end group is shown, it is not given here. The star is where a group is joined. Biotin = O=C1N[C@H]2[C@H](CS[C@H]2CCCCC(=O)*)N1

T1: His-PHF20L1 tudor 1 (UniProt A8MW92 11-71)
T1 construct: PHD-finger protein 20-like 1 (PHF20L1), tudor 1 domain; the GST construct of tudor 1 is 1-74; also called pET28a-PHF20L1 tudor 1; source: E. coli BL21 (DE3), purified
T1 sequence (looked up): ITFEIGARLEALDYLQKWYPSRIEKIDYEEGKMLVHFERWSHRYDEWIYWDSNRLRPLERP

B1: RbK810me1 peptide (biotin-GNIYISPLK[me]SPYKISEG) (peptide)
peptide: Biotin-GNIYISPLK(Me)SPYKISEG
notes: retinoblastoma protein (pRb), stretch around K810, K810 mono-methylated; also called mono-methylated K810 pRb peptide; biotinylated RbK810me1; source: synthetic peptide

How the values were obtained:
[1] = biological target: T1, His-PHF20L1 tudor 1; experiment: BLI; peptides immobilised; His-PHF20L1 tudor 1 or full-length His-PHF20L1 in seven 2.5-fold dilutions from 200 μM; 250 s association, 250 s dissociation; details: both partners purified
[2] = biological target: B1; experiment: as above; details: both partners purified

Kd [1] [µM] | Kd [2] [µM] | Binder
28 | – | B1
– | 34 | His-PHF20L1 (full length) (natural protein) MSKKPPNRPGITFEIGARLEALDYLQKWYPSRIEKIDYEEGKMLVHFERWSHRYDEWIYWDSNRLRPLERPALRKEGLKDEEDFFDFKAGEEVLARWTDCRYYPAKIEAINKEGTFTVQFYDGVIRCLKRMHIKAMPEDAKGQFLFQVKSQHPLSWCCPIDPAGSCNQSMGSEDWIALVKAAAAAAAKNKTGSKPRTSANSNKDKDKDERKWFKVPSKKEETSTCIATPDVEKKEDLPTSSETFVGLHVENVPKMVFPQPESTLSNKRKNNQGNSFQAKRARLNKITGLLASKAVGVDGAEKKEDYNETAPMLEQV
